Patent publication US20220204643A1 (published 2022)
Values belong to the binder of their own block, whether it stands above or below them.

What was measured:
[1] = molecular target: T1, olfactory receptor family 6 subfamily Q member 1 (gene/pseudogene) (human, UniProt Q8NGQ2 1-317); experiment: protein array
T1 construct: on protein array; also called OR6Q1
T1 sequence: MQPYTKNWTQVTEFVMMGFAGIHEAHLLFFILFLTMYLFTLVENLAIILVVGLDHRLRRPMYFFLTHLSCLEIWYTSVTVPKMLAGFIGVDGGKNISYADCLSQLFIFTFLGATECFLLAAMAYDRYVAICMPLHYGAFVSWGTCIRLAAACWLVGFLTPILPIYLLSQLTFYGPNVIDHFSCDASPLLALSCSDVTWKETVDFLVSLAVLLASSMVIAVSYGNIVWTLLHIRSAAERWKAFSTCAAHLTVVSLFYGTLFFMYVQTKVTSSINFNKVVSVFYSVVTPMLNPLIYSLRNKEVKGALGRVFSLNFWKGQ

[2] = molecular target: T2, methyltransferase like 21C (human, UniProt Q5VZV1 1-264); experiment: protein array
T2 construct: on protein array; also called METTL21C

[3] = molecular target: T3, RAN binding protein 10, transcript variant 1 (human, UniProt Q6VN20 2-620); experiment: protein array
T3 construct: on protein array; also called RANBP10

[4] = molecular target: T4, tripartite motif containing 35, transcript variant 1 (human, UniProt Q9UPQ4 1-493, limits assumed); experiment: protein array
T4 construct: on protein array; also called TRIM35
T4 sequence: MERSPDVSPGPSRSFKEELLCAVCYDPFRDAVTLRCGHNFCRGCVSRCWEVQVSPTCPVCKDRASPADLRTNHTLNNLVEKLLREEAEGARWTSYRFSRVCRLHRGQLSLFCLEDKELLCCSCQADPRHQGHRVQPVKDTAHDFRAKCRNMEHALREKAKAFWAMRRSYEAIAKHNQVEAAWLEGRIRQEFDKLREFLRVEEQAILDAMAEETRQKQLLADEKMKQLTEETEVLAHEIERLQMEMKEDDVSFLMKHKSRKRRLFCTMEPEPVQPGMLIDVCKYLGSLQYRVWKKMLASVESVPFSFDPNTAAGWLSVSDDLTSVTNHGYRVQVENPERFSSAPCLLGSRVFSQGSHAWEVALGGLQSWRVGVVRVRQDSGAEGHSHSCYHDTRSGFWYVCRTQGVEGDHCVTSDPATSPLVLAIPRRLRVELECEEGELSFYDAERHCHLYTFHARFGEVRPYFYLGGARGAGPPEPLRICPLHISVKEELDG

[5] = molecular target: T5, FMR1 autosomal homolog 2 (human, UniProt P51116 1-673); experiment: protein array
T5 construct: on protein array; also called FXR2

[6] = molecular target: T6, Killer cell lectin like receptor g2 (human, UniProt A4D1S0 1-409); experiment: protein array
T6 construct: on protein array; also called KLRG2
T6 sequence: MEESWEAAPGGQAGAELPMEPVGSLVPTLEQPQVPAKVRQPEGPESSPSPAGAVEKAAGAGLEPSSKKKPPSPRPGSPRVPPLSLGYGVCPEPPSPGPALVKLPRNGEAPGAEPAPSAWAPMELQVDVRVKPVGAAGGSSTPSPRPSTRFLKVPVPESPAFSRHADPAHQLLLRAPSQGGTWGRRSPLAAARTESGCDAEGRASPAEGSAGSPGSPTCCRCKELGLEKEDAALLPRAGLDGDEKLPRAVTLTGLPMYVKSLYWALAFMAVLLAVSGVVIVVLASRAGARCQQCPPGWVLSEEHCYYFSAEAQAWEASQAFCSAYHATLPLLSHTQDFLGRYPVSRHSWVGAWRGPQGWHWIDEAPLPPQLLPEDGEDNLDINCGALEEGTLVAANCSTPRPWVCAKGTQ

[7] = molecular target: T7, hydroxymethylbilane synthase, transcript variant X3 (human, UniProt P08397 18-361); experiment: protein array
T7 construct: on protein array; also called HMBS; IAMBS
T7 sequence: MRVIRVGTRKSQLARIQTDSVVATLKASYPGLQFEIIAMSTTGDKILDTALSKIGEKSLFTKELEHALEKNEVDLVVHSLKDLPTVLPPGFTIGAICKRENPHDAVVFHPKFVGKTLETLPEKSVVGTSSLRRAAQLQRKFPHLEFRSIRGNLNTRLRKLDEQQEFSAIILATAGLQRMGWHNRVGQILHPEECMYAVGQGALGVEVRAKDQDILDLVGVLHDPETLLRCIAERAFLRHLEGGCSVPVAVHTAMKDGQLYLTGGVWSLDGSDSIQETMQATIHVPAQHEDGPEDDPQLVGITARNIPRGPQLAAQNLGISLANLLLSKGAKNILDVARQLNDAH

[8] = molecular target: T8, hook microtubule tethering protein 2, transcript variant 2 (human, UniProt Q96ED9 1-719); experiment: protein array
T8 construct: on protein array; also called HOOK2
T8 sequence: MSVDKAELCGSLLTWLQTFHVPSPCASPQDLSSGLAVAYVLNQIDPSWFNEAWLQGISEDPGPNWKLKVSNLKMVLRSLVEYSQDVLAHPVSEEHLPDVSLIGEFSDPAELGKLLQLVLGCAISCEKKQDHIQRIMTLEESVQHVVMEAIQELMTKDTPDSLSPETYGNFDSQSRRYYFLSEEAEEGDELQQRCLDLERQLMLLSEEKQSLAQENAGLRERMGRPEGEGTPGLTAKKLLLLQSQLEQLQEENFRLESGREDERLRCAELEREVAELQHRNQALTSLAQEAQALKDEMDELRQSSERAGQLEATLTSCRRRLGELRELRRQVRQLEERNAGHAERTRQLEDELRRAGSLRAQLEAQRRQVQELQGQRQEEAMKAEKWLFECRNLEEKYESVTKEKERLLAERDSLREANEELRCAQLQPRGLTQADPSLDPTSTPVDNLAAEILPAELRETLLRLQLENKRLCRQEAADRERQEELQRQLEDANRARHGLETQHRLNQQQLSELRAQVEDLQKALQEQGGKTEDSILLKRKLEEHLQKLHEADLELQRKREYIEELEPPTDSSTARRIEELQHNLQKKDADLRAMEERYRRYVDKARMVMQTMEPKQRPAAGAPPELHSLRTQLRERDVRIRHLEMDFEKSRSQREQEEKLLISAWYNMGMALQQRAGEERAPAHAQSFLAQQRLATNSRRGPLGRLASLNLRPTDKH

[9] = molecular target: T9, annexin A1 (human, UniProt P04083 2-346); experiment: protein array, with experimental replicate
T9 construct: on protein array; also called ANXA1
T9 sequence: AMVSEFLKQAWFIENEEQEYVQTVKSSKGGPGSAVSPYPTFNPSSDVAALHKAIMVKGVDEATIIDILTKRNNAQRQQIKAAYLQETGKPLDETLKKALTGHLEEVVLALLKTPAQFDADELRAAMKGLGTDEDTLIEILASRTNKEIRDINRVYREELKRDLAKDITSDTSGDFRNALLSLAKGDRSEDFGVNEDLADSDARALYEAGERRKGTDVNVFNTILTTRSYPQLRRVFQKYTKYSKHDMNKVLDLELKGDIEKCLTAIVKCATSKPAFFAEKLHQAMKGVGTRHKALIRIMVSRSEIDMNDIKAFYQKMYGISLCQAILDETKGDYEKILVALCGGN

[10] = molecular target: T10, DIX domain containing 1, transcript variant 2 (human, UniProt Q155Q3 220-683)
T10 construct: also called DIXDC1
T10 sequence: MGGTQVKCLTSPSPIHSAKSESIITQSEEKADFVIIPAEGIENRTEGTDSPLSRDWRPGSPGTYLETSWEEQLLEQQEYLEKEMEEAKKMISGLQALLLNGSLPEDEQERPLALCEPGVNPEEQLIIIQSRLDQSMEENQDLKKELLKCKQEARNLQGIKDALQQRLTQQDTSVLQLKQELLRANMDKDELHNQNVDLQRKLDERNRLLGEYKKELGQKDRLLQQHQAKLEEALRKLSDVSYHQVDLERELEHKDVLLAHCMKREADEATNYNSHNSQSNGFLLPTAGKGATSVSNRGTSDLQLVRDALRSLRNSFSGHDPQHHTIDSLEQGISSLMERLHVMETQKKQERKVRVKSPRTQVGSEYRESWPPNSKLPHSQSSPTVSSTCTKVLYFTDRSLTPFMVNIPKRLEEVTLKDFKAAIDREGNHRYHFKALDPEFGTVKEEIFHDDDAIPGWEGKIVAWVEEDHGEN

[11] = molecular target: T11, family with sequence similarity 177 member A1, transcript variant 2 (human, UniProt Q8N128 1-213); experiment: protein array
T11 construct: on protein array; also called FAM177A1
T11 sequence: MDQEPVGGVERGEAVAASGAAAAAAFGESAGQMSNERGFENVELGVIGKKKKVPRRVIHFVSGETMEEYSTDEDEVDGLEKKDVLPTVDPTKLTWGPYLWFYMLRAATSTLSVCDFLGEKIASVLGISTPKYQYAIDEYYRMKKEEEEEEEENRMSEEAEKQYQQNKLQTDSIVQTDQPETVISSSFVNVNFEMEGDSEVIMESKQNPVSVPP

T5 sequence (P51116 whole entry Q252H): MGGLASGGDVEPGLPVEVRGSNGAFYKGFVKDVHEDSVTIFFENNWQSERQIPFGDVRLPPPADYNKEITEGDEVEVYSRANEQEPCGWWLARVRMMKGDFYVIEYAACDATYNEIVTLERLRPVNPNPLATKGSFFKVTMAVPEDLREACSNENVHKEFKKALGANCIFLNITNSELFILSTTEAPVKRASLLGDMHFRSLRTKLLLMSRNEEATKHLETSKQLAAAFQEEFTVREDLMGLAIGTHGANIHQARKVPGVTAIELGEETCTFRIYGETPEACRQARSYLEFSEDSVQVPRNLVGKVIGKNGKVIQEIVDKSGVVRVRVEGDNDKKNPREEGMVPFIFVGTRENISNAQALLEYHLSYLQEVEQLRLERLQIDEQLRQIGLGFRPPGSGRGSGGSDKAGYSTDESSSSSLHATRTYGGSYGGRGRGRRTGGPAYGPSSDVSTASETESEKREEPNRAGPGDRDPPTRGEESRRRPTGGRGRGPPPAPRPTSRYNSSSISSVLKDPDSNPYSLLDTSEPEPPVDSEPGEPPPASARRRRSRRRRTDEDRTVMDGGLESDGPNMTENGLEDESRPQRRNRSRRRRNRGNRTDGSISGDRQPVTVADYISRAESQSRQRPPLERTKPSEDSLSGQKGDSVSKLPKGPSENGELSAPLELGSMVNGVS
T2 sequence (Q5VZV1 whole entry): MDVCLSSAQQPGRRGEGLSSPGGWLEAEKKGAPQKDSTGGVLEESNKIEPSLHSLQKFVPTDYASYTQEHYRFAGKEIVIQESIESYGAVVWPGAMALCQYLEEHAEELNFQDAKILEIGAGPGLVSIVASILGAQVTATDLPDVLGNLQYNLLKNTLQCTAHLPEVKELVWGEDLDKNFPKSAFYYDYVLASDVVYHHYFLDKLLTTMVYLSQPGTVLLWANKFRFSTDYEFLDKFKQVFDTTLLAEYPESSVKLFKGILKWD
T3 sequence (Q6VN20 2-620 limits assumed, change not shown): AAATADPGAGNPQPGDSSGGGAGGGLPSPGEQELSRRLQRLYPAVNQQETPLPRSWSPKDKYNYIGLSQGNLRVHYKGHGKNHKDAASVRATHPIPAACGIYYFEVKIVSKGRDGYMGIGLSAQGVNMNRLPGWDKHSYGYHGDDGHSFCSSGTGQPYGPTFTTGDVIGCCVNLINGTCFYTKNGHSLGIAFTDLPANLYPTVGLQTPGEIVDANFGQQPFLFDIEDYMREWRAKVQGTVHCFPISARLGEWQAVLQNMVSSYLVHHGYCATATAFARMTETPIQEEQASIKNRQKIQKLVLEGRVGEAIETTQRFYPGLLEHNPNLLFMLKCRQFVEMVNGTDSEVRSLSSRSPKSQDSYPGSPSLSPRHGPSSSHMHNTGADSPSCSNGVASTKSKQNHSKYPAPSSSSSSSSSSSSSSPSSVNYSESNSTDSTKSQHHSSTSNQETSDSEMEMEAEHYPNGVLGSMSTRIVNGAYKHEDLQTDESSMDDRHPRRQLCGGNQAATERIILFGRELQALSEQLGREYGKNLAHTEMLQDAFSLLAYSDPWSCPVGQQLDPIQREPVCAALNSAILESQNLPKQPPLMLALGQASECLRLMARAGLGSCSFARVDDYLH

B1: TBLA1010 (antibody, V domains shown)
VH: EVQLVESGGGLVQPGRSLRLSCAASGFPFGDYAMHWVRQAPGKGLEWVSGIGWDSGGIGYADSVKGRFTISRDIAKNSLYLEINSLRPDDTALYYCAKAAATLPYFRFAMDVWGQGTPVTVSS
VL: EIVLTQSPGTLSLSPGERATLSCRASQSVSSSYLAWYQQKPGQAPRLLIFGASTRASGIPDRFSGRGSGTEFTLTISRLEPEDFAVYYCQQYDSSPFTFGPGTKVEIKR
notes: VH/VL only
- binding result [1]: binds

B2: TLUS1003 (antibody, V domains shown)
VH: QVHLVQSGSEFKKPGASVKISCKTSGYTFTNYAMNWVRQAPGQGLEWVGWINTVTGIPGYAQGFTGRFIISLDTSGRTSYLQINSLQAEDTAVYYCARSGGFGWSRDLDYWGQGTLVTVSS
VL: DIVLTQSPLSLPVTPGEPASISCRSSQSLLHSNGVYYLDWYLLKPGQSPQLVIYMGSSRASGVPDRFSGSGSGTDFRLKISRVEAEDVGIYYCMQALQTPWTFGQGTKVEIKR
notes: VH/VL tied via antigen in summary, not by name in this stretch
- binding result [2]: binds

B3: TMEL1017 (antibody, V domains shown)
VH: EVQLVESGGGLVKPGGSLRLSCAASGFTFSNYNMNWVRQAPGKGLEWVSSISSSSSYIYYADSVKGRFTISRDNAKNSLYLQMNSLRAEDTAVYYCARDALDFDWLLSAGGFDYWGQGTLVTVSS
VL: ASALTQPASVSGSPGQSITISCTGTSSDVGGYNYVSWYQQHPGKAPKLMIYEVSNRPSGVSNRFSGSKSGNTASLTISGLQAEDEADYYCSSYTSSSTLVFGGGTKLTVLG
notes: as for B2
- binding result [3]: binds

B4: TLUA1001 (antibody, V domains shown)
VH: PLQLQESGPGLVKPSETLSLTCSVSGGSIRSSAPFWGWIRQPPGKGLEWIGNIYYNGDTSYSPSLENRVTLFVDTSKNQFSLNLTSVTAADTAVYYCGRIMTPSIDLWGQGKLVTVSS
VL: EIVLTQSPGTLSLSPGERATLSCRASQSISSTYLVWYQQKPGQAPRLLIYAASYRATGIPDRFSGSGSGTDFILTISRLEPEDFAVYYCQQYGSSLTFGGGTKVEIKR
notes: as for B2
- binding result [4]: binds
- binding result [5]: binds
- binding result [6]: binds

B5: TLUS1006 (antibody, V domains shown)
VH: PVHLVQSGAEVRKPGSSVKVSCMASGGSFNTYAVNWVRQAPGQGLEWMGGIIPVFGTTNYAPRFQGRVTITADESTSTVYMELTSLTSEDTAVYYCARDRDSGYERNCLDPWGQGTLVTVSS
VL: DIVMTQSPDSLAVTLGERATINCRSSQTVLYDSNNKNYLAWYQQKPGQPPKLLIYWASIRESGVPDRFSGSGSGTDFTLTINTLQAEDVAIYFCQQYFTTPRTFGQGTKVEIKR
notes: as for B2
- binding result [7]: binds
- binding result [8]: binds

B6: TLUA1004 (antibody, V domains shown)
VH: EVQLVESGGGLVQTGGSLRLSCSASGFTFNNYWMHWVRQAPGKGLLWLSRINTDGSRGHYDDSVQGRFTISRDNAKQTVYLQMDGLRAEDTAVYFCARDGYDFRAFDHWGQGVLVTVSS
VL: DIQMTQSPSSLSASVGDKVTMTCRASQFISVYVNWYQQKPGKAPKLLIYTASSLESGVSSRFSGGGSGTDFTLTIRSLQPEDFAIYYCQQTYSTPWTFGPGTRVEIKR
notes: as for B2
- binding result [9]: binds

Next, values leading:

- binding result [10]: binds
B7: TTES1001 (antibody, V domains shown)
VH: PVQLVQSGAEVKKPGSSVQVSCKGSGGTFSEYGISWLRQAPGQGLEWIGGIIPVLGIPNYAQKFRGRVTITADESTGSAYMEVSSLRSEDTAVYYCAREGLRLARGWFHPWGQGTLVTVTS
VL: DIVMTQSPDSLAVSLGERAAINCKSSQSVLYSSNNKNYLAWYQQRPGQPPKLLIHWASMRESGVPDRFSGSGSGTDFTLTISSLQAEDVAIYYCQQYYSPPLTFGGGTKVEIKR

- binding result [11]: binds
B8: TLUA1016 (antibody, V domains shown)
VH: EVQLLESGGALVQPGGSLRLSCAVSGLTFNRFAMTWVRQAPGKGLEWVSHIGGSGGYTYYADSVKGRFTISRDNSKNTLYLQMNSLRAEDTAVYHCVKLKGIGAMWTYAMDVWGQGTTVTVSS
VL: QSVLTQPPSVSGAPGQRVTIPCTGSSSNLGAGYAVHWYQQLPATTPKLLIYANSSRPSGVPDRFSGSRSDTSASLAITGLQAEDEADYYCQSYDSSLSGYVFGTGTWVTVLS
notes: as for B2

- binding result [10]: binds
B9: TTES1010 (antibody, V domains shown)
VH: EVQLVESGGGLVQPGGSLRLSCAASGFTFSSYSMNWVRQAPGKGLEWVSYISSSSSTIYYADSVKGRFTISRDNAKNSLYLQMNSLRAEDTAVYYCASLLGGDPDYWGQGTLVTVSS
VL: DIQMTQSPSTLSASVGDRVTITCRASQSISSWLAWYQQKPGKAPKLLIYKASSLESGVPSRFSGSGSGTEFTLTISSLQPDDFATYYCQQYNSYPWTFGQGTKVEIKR
